Laboratory results: article PMC9576766, “The human TRPA1 intrinsic cold and heat sensitivity involves separate channel structures beyond the N-ARD domain” (Nature Communications, 2022)

Molecular target: the molecule itself
Assay: SEC; gel filtration on a Sephadex 100 (G-100) size exclusion column; 20 mM HEPES, 10% glycerol, 150 mM NaCl, pH 7.8, 0.014% Fos-Choline-14; immunoglobulin of 150 kDa as reference for the tetrameric fraction

B1: Δ1–854 hTRPA1 (human TRPA1 without its N-terminal ankyrin repeat domain and transmembrane segments S1–S4) (domain or fragment, UniProt O75762 855-1119, looked up)
chain: NCGIFIVMLEVILKTLLRSTVVFIFLLLAFGLSFYILLNLQDPFSSPLLSIIQTFSMMLGDINYRESFLEPYLRNELAHPVLSFAQLVSFTIFVPIVLMNLLIGLAVGDIAEVQKHASLKRIAMQVELHTSLEKKLPLWFLRKVDQKSTIVYPNKPRSGGMLFHIFCFLFCTGEIRQEIPNADKSLEMEILKQKYRLKDLTFLLEKQHELIKLIIQKMEIISETEDDDSHCSFQDRFKKEQMEQRNSRWNTVLRAVKAKTHHLEP
notes: keeps most of the S4-S5 linker (N855, C856), S5-S6 and the C-terminal domain; gene optimised for expression in insect cells; the vector pTriEx-3 is named; The tetramer is by gel filtration; a smaller monomeric fraction eluted as well; also called S1–S4 transmembrane domain deleted hTRPA1
  stoichiometry N: 4
